Data taken from patent US20160326219A1, “OPTICALLY ACTIVATED RECEPTORS” (IST AUSTRIA (INSTITUTE OF SCIENCE AND TECHNOLOGY AUSTRIA), priority 2013, published 2016).

What was measured:
MAPK pathway = assay: Stimulation and detection of MAPK signaling, PathDetect Elk1 luciferase reporter (HEK293 cells); format: cell-based, human
Procedure: For light stimulation of cells, an incubator (PT2499, ExoTerra/HAGEN, Holm, Germany) was equipped with 300 light emitting diodes (JS-FS505ORGB-W30 with JS-CON-004 controller, Komerci, Ebern, Germany; λmax˜630 nm (red), λmax˜530 nm (green), λmax˜470 nm (blue), bandwidth ˜±5 nm). Light intensity was controlled with an analog dimmer and measured with a digital power meter (PM120VA, Thorlabs, Munich, Germany). Intensities at maximal output were 2.3 (red), 2.6 (green) and 3.3 (blue light) W/m^2. For stimulation over extended time periods (>8 h), an aluminium box was equipped with the same light-emitting diodes and controller and placed in an incubator with standard tissue culture conditions (see below).
HEK293 cells and CHO-K1 (American Type Culture Collection (ATCC), Manassas, Va.) cells were maintained in DMEM supplemented with 10% FBS, 100 U/ml penicilin and 0.1 mg/ml streptomycin in a humidified incubator with 5% CO2 atmosphere. After trypsination, 5×10^4 cells were seeded in each well of 96-well plates (three to four wells for each construct) coated with poly-L-ornithine (Sigma, Vienna, Austria). Either transparent plates or black clear bottom plates were used. Cells were transfected using Lipofectamine 2000 (Invitrogen/LifeTech).
Phycocyanobilin (PCB; Livchem Logistics GmbH, Frankfurt a.M., Germany) was dissolved in a dark room to a stock concentration of 10 mM in DMSO. Aliquots were stored in the dark at −20° C. Prior to experiments, cells were incubated with 50 μM PCB overnight in reduced serum starve medium at 37° C. PCB could also be applied to applied to living animals as it is non-toxic even in high doses (0.17% of diet or 10 mg/kg) (McCarty (2007).
Activation of the MAPK pathway was assayed with the PathDetect Elk1 trans-Reporting System (Agilent) consisting of an Elk1 phosphorylation-dependent trans-activator and a luciferase-based trans-reporter. Cells were transfected with 213.3 ng total DNA per well (receptor, trans-activator and trans-reporter at ratio of 1:3:60 or 1:30:600) using Lipofectamine 2000. Six h after transfection medium was replaced with CO2-independent reduced serum starve medium (Gibco/Life Technologies; supplemented with 0.5% FBS, 2 mM L-Glutamine, 100 U/ml penicilin and 0.1 mg/ml streptomycin) for 18 h at 37° C. Cells were transferred and were either kept under constant illumination for 8 h or were protected from light. Chemical stimulation of imFGFR1 followed the same procedure, except that 10 nM AP20187 ((Clackson 1998); ARIAD Pharmaceuticals, Cambridge, Mass.) were added before transfer to the stimulation incubator. After incubation, plates were washed once with PBS and luciferase was detected with standard, off-the-shelf reagents. These were either Luciferase 1000 Assay System (Promega, Mannheim, Germany) in combination with a microplate reader equipped with an injector (Tecan Infinite 200 Pro, Maennedorf, Switzerland), or ONE-Glo Assay System (Promega) in combination with a microplate reader not equipped with an injector (BioTek Synergy H1). These assay systems provide equivalent results.

M38K cells = assay: All optical evaluation of pharmacological compounds / cell morphology, M38K cells stably expressing Opto-mFGFR1; format: cell-based, human; settings: M38K cells; blue light (Opto-mFGFR1) or added growth factor
From the text: (§1) M38K and SPC212, two malignant pleural mesothelioma cell lines, were maintained in RPMI1640 supplemented with 10% FBS. Telomerase-immortalized microvascular hBE cells were maintained in Clonetics EGM2 MV endothelial growth medium (Lonza, Wakersville, Md.) supplemented with 5% FBS. For retrovirus generation, Opto-mFGFR1 or mCherry as control was subcloned into pQCXIP (Clontech, Mountain View, Calif.) using EcoRI and NotI restriction enzymes. Viral particles were generated in HEK293 cells by co-transfection with the helper plasmids pVSV-G and p-gag-pol-gpt. Supernatants were used to transduce M38K, SPC212 or hBE cells grown to 50% confluency in 6-well plates. Cells were selected with 0.8 μg/ml puromycin for 10 d and transgene expression was verified by immunoblotting.
10^5 M38K cells were seeded in each well of 6-well plates. After 24 h, cells were stimulated for 1 h or kept in the dark. FGF2 (Sigma) or PD166866 (Pfizer Global Research and Development, New London, Conn.) were added as indicated. After additional 24 h, cells were photographed on the Nikon Ti300 microscope. For quantification of cell morphology, all cell perimeters in randomly selected sections of phase contrast images were traced and aspect ratios (defined as length of major axis divided by length of minor axis of a fitted ellipse) calculated with ImageJ software (National Institute of Health). Greater than 50 individual values contributed to each average.
For M38K cells, cell morphology was evaluated as described above but followed by automated image analysis. Phase contrast images (typically three images from two wells) were automatically analyzed. Images were converted to greyscale, resized and divided into segments for local threshold correction (threshold was defined as most probably intensity multiplied by a constant factor of 0.85; Igor Pro, Wavemetrics, Lake Oswego, Oreg.). Cells were identified and measured in FIJI/ImageJ (Max Planck Society/National Institutes of Health; size limit: 40 to 600 pixel̂2, circularity limit: 0.01 to 1.00). Occasionally, outliers were removed manually. Typically 200 to 1800 individual values contributed to the averages of FIG. 9. For HEK293 cells, MAPK pathway activation was measured using luciferase as described above.

blood endothelial cells = assay: Stimulation and Western blot (hBE cells); format: cell-based; settings: ~3 μW/mm^2
From the text: as §1
For immunoblotting, 5×10^5 cells were seeded in each well of 6-well plates. After 24 h, medium was replaced with reduced serum medium (M38K, SPC212). After additional 20 h, cells were transferred to the stimulation incubator and illuminated for 1, 5 or 15 min or shielded from light. Cells were then either immediately or after additional 5, 15 or 30 min in the dark washed and lysed in 50 μl lysis buffer per well on ice. Lysates were sonicated and centrifuged (12000 g, 5 min, 4° C.). […] Chemiluminescence was developed with WesternC reagent (Biorad, Hercules, Calif.) and signals recorded on X-ray film (GE Healthcare).

B1: Opto-mFGFR1: chimeric receptor of mFGFR1 intracellular domain and VfAU1-LOV, SEQ ID NO: 58 (protein)
chain: MGSSKSKPKDPSQRLDMKSGTKKSDFHSQMAVHKLAKSIPLRRQVTVSADSSASMNSGVLLVRPSRLSSSGTPMLAGVSEYELPEDPRWELPRDRLVLGKPLGEGCFGQVVLAEAIGLDKDKPNRVTKVAVKMLKSDATEKDLSDLISEMEMMKMIGKHKNIINLLGACTQDGPLYVIVEYASKGNLREYLQARRPPGLEYCYNPSHNPEEQLSSKDLVSCAYQVARGMEYLASKKCIHRDLAARNVLVTEDNVMKIADFGLARDIHHIDYYKKTTNGRLPVKWMAPEALFDRIYTHQSDVWSFGVLLWEIFTLGGSPYPGVPVEELFKLLKEGHRMDKPSNCTNELYMMMRDCWHAVPSQRPTFKQLVEDLDRIVALTSNQEYLDLSIPLDQYSPSFPDTRSSTCSSGEDSVFSHEPLPEEPCLPRHPTQLANSGLKRRVETGPDYSLVKALQMAQQNFVITDASLPDNPIVYASRGFLTLTGYSLDQILGRNCRFLQGPETDPRAVDKIRNAITKGVDTSVCLLNYRQDGTTFWNLFFVAGLRDSKGNIVNYVGVQSKVSEDYAKLLVNEQNIEYKGVRTSNMLRRKTGGSGVDYPYDVPDYALD
modifications: mFGFR1-VfAU1-LOV
MAPK pathway; HEK293 cells expressing the fusion protein (LOV domain fused to RTK intracellular domain), ~3 μW/mm^2
  MAPK pathway activation in response to blue light: activated the MAPK pathway similarly to imFGFR1
MAPK pathway; HEK293 cells, control experiment
  MAPK pathway activation in response to green light or red light: no effect
MAPK pathway; I472V, HEK293 cells, FIG. 5c
  Activation by blue light after reducing the lifetime of VfAU1-LOV ~8-fold by mutation: reduces Opto-mFGFR1 activation
MAPK pathway; kinase dead (Y271F, Y272F), HEK293 cells
  MAPK pathway activation in response to blue light after loss of kinase activity: no effect
MAPK pathway; low intensity blue light
  Blue light intensity at which activated: ~3 μW/mm^2
M38K cells
  Cell morphology response: EMT-like morphological alterations
Blood endothelial cells
  Phosphorylation upon blue light stimulation: rapid phosphorylation of Opto-mFGFR1 and ERK1/2
